One may read the Kd as a measure of binding affinity in units of concentration.

The experiment addresses Neuropeptide Y (TAMRA-NPY) (Sus scrofa), P01304.

B1: Neuropeptide Y receptor type 2 (Y2R-A202C), P49146 (protein)
chain: MGPIGAEADENQTVEEMKVEQYGPQTTPRGELVPDPEPELIDSTKLIEVQVVLILAYASIILLGVIGNSLVIHVVIKFKSMRTVTNFFIANLAVADLLVNTLALPFTLTYTLMGEWKMGPVLCHLVPYAQGLAVQVSTITLTVIALDRHRAIVYHLESKISKRISFLIIGLAWGISALLASPLAIFREYSLIEIIPDFEIVCCTEKWPGEEKSIYGTVYSLSSLLILYVLPLGIISFSYTRIWSKLKNHVSPGAANDHYHQRRQKTTKMLVAVVVVFAVSWLPLHAFQLAVDIDSQVLDLKEYKLIFTVFHIIAMASTFANPLLYGWMNSNYRKAFLSAFRCEQRLDAIHSEVSVTFKAKKNLEVRKNSGPNDSFTEATNV
As for B1, the equilibrium dissociation constant (Kd) stood at 32 nM.

The values are drawn from paper PMC9919357.
